The target of the data set is RNA polymerase II (12-subunit) (Sus scrofa (thymus), UniProt A0A8D1DPV6;A0A0B8RVL1;P19387;O15514;P19388;P61218;P62487;P52434;P60899;P62875;A0 …). The data set can be described thus: cryo-EM; alternative conformation, EMD-18376; FA: 5 mM HEPES-NaOH pH 7.25, 150 mM NaCl, 10 uM ZnCl2, 1 mM MgCl2, 1 mM DTT, 4 nM RNA, 30 C; EMSA: 20 mM HEPES-NaOH pH 7.25, 150 mM NaCl, 1 mM MgCl2, 5% glycerol, 40 ug/ml BSA, 1 mM DTT, 5 nM RNA, 30 C (gel 4 C). The settings on record: protein: native; copies: 1;1;1;1;1;1;1;1;1;1;1;1; folded; canonical and alternative conformations. In general terms: In EMSA bound probe runs differently from free probe, usually more slowly.

B1: minimal Alu-RA (structured_RNA)
RNA: GAGGCAGGAGAAUGGCGUGAACCCGGGAGGUGGACGAGAUCGCUCCAGCCUGGGUGACAGAGCGAGACUCUGUCUC
As for B1, the binding result was “binds”.
